Data as given in patent US10280218B2, “Antibodies binding to BMP4, and uses thereof” (ACADEMISCH MEDISCH CENTRUM, priority 2014, dated 2019).

Key:
BMP6 = molecular target: T1, BMP6 (Homo sapiens, UniProt P22004); experiment: Surface plasmon resonance (SPR), BMPs injected over VHH-coated chip; conditions: molecule coupled to chip; unit inferred; — not defined there (Table 1: No binding detected)
T1 sequence (P22004 375-513): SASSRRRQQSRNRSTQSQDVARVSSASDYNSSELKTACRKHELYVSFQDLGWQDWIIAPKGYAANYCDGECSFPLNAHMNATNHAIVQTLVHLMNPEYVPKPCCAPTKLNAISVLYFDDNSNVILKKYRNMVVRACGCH
Experimental: (§1) To confirm their BMP specificities and to elucidate their binding affinities, our VHHs were subjected to surface plasmon resonance (SPR) analysis. In a first set of experiments, controls and VHHs (either as monomers or dimers) were coupled to SPR chips and the measurement of BMP affinities was obtained by injecting the different BMPs to the plate.
(§2) Serial dilutions (2.0-10 μg/ml) of purified VHHs were spotted on an amine-specific SensEye gold-film gel-type SPRchip (Ssens), using a Continuous Flow Microspotter (Wasatch Microfluidics, Salt Lake City, Utah, United States) as described (Lokate et al., 2007). BMP binding was analyzed on an IBIS MX96 (IBIS Technologies, Enschede, The Netherlands) instrument by performing injections with dilution series (0.05-2.0 μg/ml) of recombinant BMPs on the VHH-coated chip. In each injection, BMPs were injected and incubated for 8 min, followed by 15 min thorough washing with binding buffer (PBS+0.05% Tween20+0.05% sodium azide) to measure dissociation. Epitope binning was done by injecting VHH dilutions (2.0 μg/ml) over the chip, immediately after the dissociation step. Injections with blank binding buffer were used as reference. After each concatenated injection, the chip was regenerated with 10 mM glycine-HCl, pH 2.0. Experimental data were processed with SPRintX software (IBIS Technologies) and kinetic parameters were determined using Scrubber2 software (BioLogic Software, Campbell, ACT, Australia). Binding constants were obtained by global fitting to a one-site binding model.

BMP5 = molecular target: T2, BMP5 (Homo sapiens, UniProt P22003); experiment: as above; format: binding; conditions: molecule coupled to chip; unit inferred
T2 sequence (P22003 317-454): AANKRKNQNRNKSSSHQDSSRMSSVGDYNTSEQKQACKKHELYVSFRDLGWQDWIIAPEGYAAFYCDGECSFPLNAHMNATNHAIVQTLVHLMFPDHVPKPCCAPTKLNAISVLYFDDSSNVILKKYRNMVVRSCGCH
Experimental: as §1, §2

BMP7 = molecular target: T3, BMP7 (Homo sapiens, UniProt P18075); experiment: as above; format: binding; conditions: molecule coupled to chip; unit inferred; — not defined there (Table 1: No binding detected)
T3 sequence (P18075 293-431): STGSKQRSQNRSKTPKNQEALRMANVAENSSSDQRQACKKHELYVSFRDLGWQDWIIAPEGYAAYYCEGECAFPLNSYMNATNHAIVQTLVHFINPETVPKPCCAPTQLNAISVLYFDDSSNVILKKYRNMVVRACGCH
Experimental: as §1, §2

BMP2 [1] = molecular target: T4, BMP2 (Homo sapiens, UniProt P12643); experiment: as above; conditions: molecule coupled to chip, —: No binding detected
T4 sequence (P12643 283-396): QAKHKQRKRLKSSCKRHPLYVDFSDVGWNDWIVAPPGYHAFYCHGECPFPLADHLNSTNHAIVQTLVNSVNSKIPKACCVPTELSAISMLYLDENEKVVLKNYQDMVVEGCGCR
Experimental: In a first set of experiments, controls and VHHs (either as monomers or dimers) were coupled to SPR chips and the measurement of BMP affinities was obtained by injecting the different BMPs to the plate.
as §2

BMP4 [2] = molecular target: T5, BMP4 (Homo sapiens, UniProt P12644); experiment: as above; format: binding; parameters: purchased R&D systems; conditions: molecule coupled to chip
T5 sequence (P12644 293-408): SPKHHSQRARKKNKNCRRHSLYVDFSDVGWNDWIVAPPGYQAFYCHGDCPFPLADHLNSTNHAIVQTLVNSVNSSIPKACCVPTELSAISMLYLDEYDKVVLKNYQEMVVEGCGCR
Experimental: as §1, §2

BMP2 [3] = molecular target: T6, BMP2 (human); experiment: SPR
T6 chain: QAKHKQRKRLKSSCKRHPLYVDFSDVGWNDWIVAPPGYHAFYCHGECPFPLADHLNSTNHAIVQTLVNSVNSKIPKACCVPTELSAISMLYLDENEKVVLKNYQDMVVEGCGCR

BMP4 [4] = molecular target: T7, BMP4 (human); experiment: SPR
T7 chain: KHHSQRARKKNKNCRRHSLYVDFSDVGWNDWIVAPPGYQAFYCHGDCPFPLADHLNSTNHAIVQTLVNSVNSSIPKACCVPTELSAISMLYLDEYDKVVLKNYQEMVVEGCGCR

BMP2 [5] = molecular target: T4, BMP2; experiment: BMP activity luciferase reporter assay (BRE-luciferase, ID1 promoter) in C2C12 cells; format: cell-based, mouse; conditions: BMP2 50 ng/ml, 16 hours; 5 μg/ml
Experimental: One of the most studied BMP target genes is the Inhibitor of Differentiation 1 (ID1). This is an immediate early gene that is activated by binding of the phosphorylated SMADs to its promoter region (López-Rovira et al., 2002). Thus, we employed the BMP-responsive C2C12 cells, which are stably transfected with the BRE-luciferase vector containing the BMP-Responsive-Element (the mouse ID1 promoter) cloned into the pGL3 luciferase vector (Zilberberg 2007). […] C2C12 cells were treated with the different BMPs with or without our VHHs or human Noggin at a concentration of 5 μg/ml. Luciferase activity was measured after 16 hours incubation. Most of the transcriptional data is in concordance with the results obtained with the phosphorylation of SMAD1/5/8.
C2C12 cells were plated in 96-well plates at 5×10^3 cells/well and cells were allowed to attach overnight. 100 μl of DMEM with 0.1% BSA were added in each well. VHH antibodies and human Fc-Noggin at the indicated concentrations were added at the same time. Wells with unstimulated cells were added as controls. Cells were treated in triplicate with the BMPs at the indicated concentrations for 16 hours. Luciferase activity was measured by adding 100 μl of luciferase substrate solution from the Bright-Glo™ Luciferase Assay System (Promega Benelux, Leiden, The Netherlands). After 3 minutes of incubation, luciferase activity was measured with Synergy HT Multi-Mode Microplate Reader (Biotek, Winooski, Vt., United States). Luciferase values were normalized to background activity (activity of wells with no cells) and represented as ratio to the activity of BMP-stimulated cells.
To evaluate the extent of this increase in potency, the IC50 of the different VHHs were determined in a dose-dependent inhibition assay in C2C12 cells (FIG. 25). C2C12 cells were plated in 96-well plates at 5×10^3 cells/well and cells were allowed to attach overnight 100 μl of DMEM with 0.1% BSA were added in each well. VHH antibodies were added at the indicated concentrations at the same time as 5 ng/ml BMP4 (FIG. 25A-B, D) or 50 ng/ml of BMP2 (FIG. 25C,D). Luciferase activity was measured after 16 hours. Values are represented as ratio to the activity of BMP-stimulated cells. […] However, its effects were more striking for BMP2 rather than BMP4 inhibition. […] The IC50 values for BMP4 inhibition observed in our VHHs are considerably lower than those observed for anti-BMP4 commercially available from R&D (Katagiri et al 1994) and those described in WO_2008/030611.
C2C12 cells were cultured in 96-well plates at 5×10^3 cells/well. After overnight attachment cells were stimulated with 10 ng/ml hBMP4 (Cat No. 314-BP-020; R&D Systems), 50 ng/ml hBMP2 (Cat No. 355-BM-010; R&D Systems), 200 ng/ml hBMP5 (Cat No. 615-BMC-020; R&D Systems), 50 ng/ml hBMP6 (Cat No. 506-BP-020; R&D Systems), 200 ng/ml hBMP7 (Cat No. 354-BP-010; R&D Systems), 25 ng/ml hBMP9 (Cat No. 3209-BP-010; R&D Systems), 25 ng/ml hBMP10 (Cat No. 2926-BP-025; R&D Systems), 50 ng/ml hBMP12 (Cat No. 779-G7-010; R&D Systems) and with or without VHH antibodies: C4C4 and C8C8 at 500 ng/ml; natural antagonist: mNoggin (Cat No. 1967-NG-025; R&D Systems), hNoggin (Cat No. 6057-NG; R&D Systems) and mGremlin (cat#956-GR-050; R&D Systems) at 500 ng/ml; chemical antagonist: 0.5 μM LDN-193189 (Cat No. 11802; Cayman Chemical) and 0.2 μM DMH1 (Cat No. 57146; Selleckchem).
VHH efficacy was evaluated by stimulating cells with 10 ng/ml of hBMP4 and 50 ng/ml of hBMP2, with and without increase concentrations (from 0.1-10 μg/ml) of VHH and anti-BMP4 antibodies: clone 66119, clone 3H2, clone M912262, clone PA354-16.1.1, Clone EPR6211, and anti-BMP4 (ab39973). […] Unstimulated cells were used as controls and wells with no cells used to normalize the background activity. […]

Molecule | Kd (BMP2 [3]) [nM] | Kd (BMP4 [4]) [nM] | other results
BMPR1a: type I BMP receptor used as control in SPR [reference compound] | – | – | Kd (BMP6): 24 nM; Kd (BMP5): 60 nM; Kd (BMP7): 131 nM; kd (BMP2) (BMP2 [1]): 14.0 10^−5 sec^−1; kd (BMP4) (BMP4 [2]): 9.2 10^−5 sec^−1
C4-C4 (antibody, V domains shown) V domain 1: EVQLVESGGGLVQAGGSLRLSCAASGRTFSTYAMGWFRQAPGKEREFVAAISKGGGITYYSDSVRGRFTISKENAKNTVYLQMNSLKPEDTAVYYCAADPVSSVAKSPVAYPYWGQGTQVTVSS V domain 2: EVQLVESGGGLVQAGGSLRLSCAASGRTFSTYAMGWFRQAPGKEREFVAAISKGGGITYYSDSVRGRFTISKENAKNTVYLQMNSLKPEDTAVYYCAADPVSSVAKSPVAYPYWGQGTQVTVSS | 2.15 | 0.0097 | –
D99A of C4: mutational variant of VHH C4, single substitution D99A (protein) VHH: EVQLVESGGGLVQAGGSLRLSCAASGRTFSTYAMGWFRQAPGKEREFVAAISKGGGITYYSDSVRGRFTISKENAKNTVYLQMNSLKPEDTAVYYCAAAPVSSVAKSPVAYPYWGQGTQVTVSS | – | – | inhibition of BMP2-mediated transcriptional activation (BMP2 [5]): C4 nor its D99A mutant, had any effect
BMPR1a (protein) QNLDSMLHGTGMKSDSDQKKSENGVTLAPEDTLPFLKCYCSGHCPDDAINNTCITNGHCFAIIEEDDQGETTLASGCMKYEGSDFQCKDSPKAQLRRTIECCRTNLCNQYLQPTLPPVVIGPFFDGSIR | – | 0.635 | –
C8-C8 (antibody, V domains shown) V domain 1: EVQLVESGGGLVQAGGSLRLSCAASGRTFRINDMGWYRQAPGKSRDMVARITSGGNTNYADSVKGRFTISRDNAKNTVYLQMNSLKPEDTAVYYCNADGLRFDSTRYRPFDSWGQGTQVTVSS V domain 2: EVQLVESGGGLVQAGGSLRLSCAASGRTFRINDMGWYRQAPGKSRDMVARITSGGNTNYADSVKGRFTISRDNAKNTVYLQMNSLKPEDTAVYYCNADGLRFDSTRYRPFDSWGQGTQVTVSS | 0.0628 | 0.031 | –
C8 (antibody, V domains shown) VH: EVQLVESGGGLVQAGGSLRLSCAASGRTFRINDMGWYRQAPGKSRDMVARITSGGNTNYADSVKGRFTISRDNAKNTVYLQMNSLKPEDTAVYYCNADGLRFDSTRYRPFDSWGQGTQVTVSS | 0.88 | 0.392 | –
C8-E7 (antibody, V domains shown) V domain 1: EVQLVESGGGLVQAGGSLRLSCAASGRTFRINDMGWYRQAPGKSRDMVARITSGGNTNYADSVKGRFTISRDNAKNTVYLQMNSLKPEDTAVYYCNADGLRFDSTRYRPFDSWGQGTQVTVSS V domain 2: EVQLVESGGGLVQAGGSLRLSCAASGSIRGFVAMAWYRQAPGKQREWVATVTNGGTLYGDSVKGRFTGSRDNAKNTVYLQMNSLKPEDTAVYYCALRQIGASGYDYWGQGTQVTVSS | 0.554 | 0.099 | –
E7 (antibody, V domains shown) VH: EVQLVESGGGLVQAGGSLRLSCAASGSIRGFVAMAWYRQAPGKQREWVATVTNGGTLYGDSVKGRFTGSRDNAKNTVYLQMNSLKPEDTAVYYCALRQIGASGYDYWGQGTQVTVSS | 1.07 | 0.512 | –
